# Target: Recombinant soluble form (amino acids 297-580) of human mesothelin (r-MSLN) (Homo sapiens, UniProt Q13421)
# Assay: BLI
row,Binder,Kd [µM]
1,"Antihuman MSLN His-Tag scFv clone H1a050 (scFv, V domains shown) VH: EVQLVQSGGGLVQPDRSLRLSCAASGFTFDDYAMHWVRQAPGKGLEWVSGISWNSGSIGYADSVKGRFTISRDNAKNSLYLQMNSLRAEDTALYYCAKDLGSYYGSGSGMDVWGQGTTVTVSS VL: SYELTQPPSVSVSPGQTARITCSGNALPKQYAYWYQQKPGQAPVLMIYKDSERPSGIPERFSGSSSGTTVTLTISGVQAEDEADYYCQSADSSHTYKVFGGGTKLTVL",0.00468
2,"89Zr-DFO-scFv H1a050 (scFv, V domains shown) VH: EVQLVQSGGGLVQPDRSLRLSCAASGFTFDDYAMHWVRQAPGKGLEWVSGISWNSGSIGYADSVKGRFTISRDNAKNSLYLQMNSLRAEDTALYYCAKDLGSYYGSGSGMDVWGQGTTVTVSS VL: SYELTQPPSVSVSPGQTARITCSGNALPKQYAYWYQQKPGQAPVLMIYKDSERPSGIPERFSGSSSGTTVTLTISGVQAEDEADYYCQSADSSHTYKVFGGGTKLTVL",0.0462
3,"89Zr-DFO-scFv H2a064 (scFv, V domains shown) VH: QVQLVQSGGGLVQPGRSLRLSCAASGFTFDDYAMHWVRQAPGKGLEWVSGISWNSGSIGYADSVKGRFTISRDNAKNSLYLQMNSLRAEDTALYYCAKDIGSSGWYGAFDIWGQGTTVTVSS VL: SYELTQPPSVSVSPGQTARITCSGDALPKHYASWYQQKPGQAPVLLIYKDTERPSGIPERFSGSSSGTTVTLTISGVQAEDEADYYCQSADSSVTVVFGGGTKLTVL",0.0782

# Results, then the binder that gave them:
row,Kd [µM],Binder
1,0.00338,"DFO-conjugated His-Tag scFv clone H1a050 (scFv, V domains shown) VH: EVQLVQSGGGLVQPDRSLRLSCAASGFTFDDYAMHWVRQAPGKGLEWVSGISWNSGSIGYADSVKGRFTISRDNAKNSLYLQMNSLRAEDTALYYCAKDLGSYYGSGSGMDVWGQGTTVTVSS VL: SYELTQPPSVSVSPGQTARITCSGNALPKQYAYWYQQKPGQAPVLMIYKDSERPSGIPERFSGSSSGTTVTLTISGVQAEDEADYYCQSADSSHTYKVFGGGTKLTVL"
2,0.114,"DFO-conjugated His-Tag scFv clone H2a064 (scFv, V domains shown) VH: QVQLVQSGGGLVQPGRSLRLSCAASGFTFDDYAMHWVRQAPGKGLEWVSGISWNSGSIGYADSVKGRFTISRDNAKNSLYLQMNSLRAEDTALYYCAKDIGSSGWYGAFDIWGQGTTVTVSS VL: SYELTQPPSVSVSPGQTARITCSGDALPKHYASWYQQKPGQAPVLLIYKDTERPSGIPERFSGSSSGTTVTLTISGVQAEDEADYYCQSADSSVTVVFGGGTKLTVL"
3,0.0596,"Antihuman MSLN His-Tag scFv clone H2a064 (scFv, V domains shown) VH: QVQLVQSGGGLVQPGRSLRLSCAASGFTFDDYAMHWVRQAPGKGLEWVSGISWNSGSIGYADSVKGRFTISRDNAKNSLYLQMNSLRAEDTALYYCAKDIGSSGWYGAFDIWGQGTTVTVSS VL: SYELTQPPSVSVSPGQTARITCSGDALPKHYASWYQQKPGQAPVLLIYKDTERPSGIPERFSGSSSGTTVTLTISGVQAEDEADYYCQSADSSVTVVFGGGTKLTVL"
